Measurements from article PMC2752026 (The EMBO Journal, 2009).

Biological target: the molecule itself
Assay: crystal structure

B1: major vault protein MVP, as in intact vault particles purified from rat liver (natural protein, rat (endogenous in rat liver), UniProt Q62667 1-861, looked up)
chain: MATEEAIIRIPPYHYIHVLDQNSNVSRVEVGPKTYIRQDNERVLFAPVRMVTVPPRHYCIVANPVSRDTQSSVLFDITGQVRLRHADQEIRLAQDPFPLYPGEVLEKDITPLQVVLPNTALHLKALLDFEDKNGDKVMAGDEWLFEGPGTYIPQKEVEVVEIIQATVIKQNQALRLRARKECFDREGKGRVTGEEWLVRSVGAYLPAVFEEVLDLVDAVILTEKTALHLRALQNFRDLRGVLHRTGEEWLVTVQDTEAHVPDVYEEVLGVVPITTLGPRHYCVILDPMGPDGKNQLGQKRVVKGEKSFFLQPGERLERGIQDVYVLSEQQGLLLKALQPLEEGESEEKVSHQAGDCWLIRGPLEYVPSAKVEVVEERQAIPLDQNEGIYVQDVKTGKVRAVIGSTYMLTQDEVLWEKELPSGVEELLNLGHDPLADRGQKGTAKPLQPSAPRNKTRVVSYRVPHNAAVQVYDYRAKRARVVFGPELVTLDPEEQFTVLSLSAGRPKRPHARRALCLLLGPDFFTDVITIETADHARLQLQLAYNWHFELKNRNDPAEAAKLFSVPDFVGDACKAIASRVRGAVASVTFDDFHKNSARIIRMAVFGFEMSEDTGPDGTLLPKARDQAVFPQNGLVVSSVDVQSVEPVDQRTRDALQRSVQLAIEITTNSQEAAAKHEAQRLEQEARGRLERQKILDQSEAEKARKELLELEAMSMAVESTGNAKAEAESRAEAARIEGEGSVLQAKLKAQALAIETEAELERVKKVREMELIYARAQLELEVSKAQQLANVEAKKFKEMTEALGPGTIRDLAVAGPEMQVKLLQSLGLKSTLITDGSSPINLFSTAFGLLGLGSDGQPPAQK
B1 was tested, and the “stoichiometry N” value was 78.
